In publication PMC7232488:

Key:
[1] = biological target: Gag (Human immunodeficiency virus 1) (UniProt O93182); conditions: cited from earlier work
[2] = tested on: Δ1 SP1 Gag (HIV-1 (isolate BH10)); test: MST
[3] = tested on: WM Gag (HIV-1 (isolate BH10)); test: MST

Sequence of Gag (O93182 2-500): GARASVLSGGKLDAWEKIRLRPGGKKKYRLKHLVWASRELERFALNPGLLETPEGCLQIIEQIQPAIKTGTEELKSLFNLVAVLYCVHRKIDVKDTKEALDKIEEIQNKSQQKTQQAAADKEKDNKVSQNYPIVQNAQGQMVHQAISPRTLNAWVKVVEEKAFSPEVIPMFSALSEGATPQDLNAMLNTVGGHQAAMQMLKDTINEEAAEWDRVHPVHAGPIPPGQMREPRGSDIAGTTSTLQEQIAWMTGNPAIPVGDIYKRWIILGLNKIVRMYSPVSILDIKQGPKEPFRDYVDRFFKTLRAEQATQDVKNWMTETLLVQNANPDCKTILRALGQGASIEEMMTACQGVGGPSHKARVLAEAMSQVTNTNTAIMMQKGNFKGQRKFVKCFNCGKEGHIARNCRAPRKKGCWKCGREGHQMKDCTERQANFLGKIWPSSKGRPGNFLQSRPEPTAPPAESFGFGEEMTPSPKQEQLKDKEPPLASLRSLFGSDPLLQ

Which Kd [1] does the source give for Gag (from UniProt O93182) here?
The Kd was 5.5 µM.

Which binding signal (fold difference vs WT Gag) [2] does the source give for reverse complement RNA (non-Ψ control) here?
Its binding signal (fold difference vs WT Gag) is 2.

For Ψ RNA, which binding signal (fold decrease in affinity vs WT Gag) [3] is on record?
Its binding signal (fold decrease in affinity vs WT Gag) is 3.5.

And the binding signal (fold difference vs WT Gag) [2]?
Its binding signal (fold difference vs WT Gag) is 2.
